The test deals with human SR-BI with 12 vector-derived amino acids added to the carboxyl terminal (pcDNA3-SR-BI construct of Example 3) (human) (UniProt Q8WTV0). Briefly: FACS dot plot, BHK-21 cells transiently transfected with pcDNA3-SR-BI.
Sequence of UniProt Q8WTV0 (Q8WTV0 other isoform, or with tags, fused parts or gaps limits assumed): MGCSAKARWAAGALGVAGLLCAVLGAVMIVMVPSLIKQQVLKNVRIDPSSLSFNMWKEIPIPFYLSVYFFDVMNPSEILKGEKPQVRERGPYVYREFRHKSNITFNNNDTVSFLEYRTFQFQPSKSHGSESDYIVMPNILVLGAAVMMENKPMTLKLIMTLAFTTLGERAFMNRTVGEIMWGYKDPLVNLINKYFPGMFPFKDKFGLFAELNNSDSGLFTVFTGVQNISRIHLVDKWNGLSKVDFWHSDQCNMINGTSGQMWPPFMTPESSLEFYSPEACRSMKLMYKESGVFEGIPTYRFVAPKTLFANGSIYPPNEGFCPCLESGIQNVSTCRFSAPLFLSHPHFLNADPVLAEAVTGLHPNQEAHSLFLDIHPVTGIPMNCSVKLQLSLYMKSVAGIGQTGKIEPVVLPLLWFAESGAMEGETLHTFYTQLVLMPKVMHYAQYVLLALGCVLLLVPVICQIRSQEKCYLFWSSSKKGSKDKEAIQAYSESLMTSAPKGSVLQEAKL

The substance “HCV E2 recombinant protein, genotype 1a (strain H), amino acids 384-661 of the HCV polyprotein with C-terminal 6 His tag (from UniProt P27958 384-661) (ligand)” returned a percent of transfected cells that bind E2 of 10%.

Source of the values: patent publication US20050019751A1.
